Test system: Escherichia coli TOP10
Experiment: shrunken log2 fold change of peptide-encoding DNA abundance (4.5 h post-induction vs induction); higher = less antimicrobial activity (less host growth inhibition)
Conditions: time post-induction: 4.5 h; library: site-saturation at positions 5, 18, 19, 20
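Note: peptides expressed intracellularly from a pBAD plasmid library in pooled LB shake-flask culture, induced with 0.3% L-arabinose, DNA abundance read by NGS, three biological replicates, DESeq2 with apeglm shrinkage.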

In order of falling “shrunken log2 fold change” value:
1. RRIRKRPPRLPRPRPRPEIKPRP  0.977
2. RRIRGRPPRLPRPRPRPLGVPRP  0.835
3. RRIRARPPRLPRPRPRPTHYPRP  0.702
4. RRIRGRPPRLPRPRPRPGLHPRP  0.682
5. RRIRGRPPRLPRPRPRPEEFPRP  0.593
6. RRIRRRPPRLPRPRPRPRAQPRP  0.5
7. RRIRARPPRLPRPRPRPDGPPRP  0.455
8. RRIRKRPPRLPRPRPRPRCFPRP  0.412
9. RRIRRRPPRLPRPRPRPQGEPRP  0.373
10. RRIRDRPPRLPRPRPRPLPKPRP  0.368
11. RRIRNRPPRLPRPRPRPGEMPRP  0.336
12. RRIRHRPPRLPRPRPRPAMQPRP  0.325
13. RRIRVRPPRLPRPRPRPLRTPRP  0.246
14. RRIRCRPPRLPRPRPRPQTAPRP  0.225
15. RRIRLRPPRLPRPRPRPRDKPRP  0.133
16. RRIRQRPPRLPRPRPRPDWVPRP  0.116
17. RRIRQRPPRLPRPRPRPARYPRP  0.0932
18. RRIRFRPPRLPRPRPRPNRAPRP  0.091
19. RRIRLRPPRLPRPRPRPIGPPRP  0.0835
20. RRIRERPPRLPRPRPRPTDAPRP  0.0786
21. RRIRRRPPRLPRPRPRPHVGPRP  0.0734
22. RRIRARPPRLPRPRPRPFCTPRP  0.0721
23. RRIRDRPPRLPRPRPRPVPLPRP  0.0621
24. RRIRTRPPRLPRPRPRPHALPRP  0.0575
25. RRIRKRPPRLPRPRPRPVCIPRP  0.0558
26. RRIRMRPPRLPRPRPRPIEYPRP  0.048
27. RRIRVRPPRLPRPRPRPGSGPRP  0.0303
28. RRIRYRPPRLPRPRPRPESDPRP  0.03
29. RRIRTRPPRLPRPRPRPVNDPRP  0.0249
30. RRIRMRPPRLPRPRPRPTSHPRP  0.0149
31. RRIRVRPPRLPRPRPRPAMLPRP  0.0111
32. RRIRYRPPRLPRPRPRPHSCPRP  -0.00211
33. RRIRRRPPRLPRPRPRPLCQPRP  -0.00285
34. RRIRCRPPRLPRPRPRPFCSPRP  -0.008
35. RRIRLRPPRLPRPRPRPWIWPRP  -0.0106
36. RRIRTRPPRLPRPRPRPMENPRP  -0.011
37. RRIRVRPPRLPRPRPRPHQFPRP  -0.0147
38. RRIRYRPPRLPRPRPRPESEPRP  -0.0162
39. RRIRMRPPRLPRPRPRPDKCPRP  -0.0194
40. RRIRHRPPRLPRPRPRPAFEPRP  -0.0402
41. RRIRVRPPRLPRPRPRPKLLPRP  -0.0409
42. RRIRVRPPRLPRPRPRPRRYPRP  -0.0486
43. RRIRVRPPRLPRPRPRPMYWPRP  -0.0619
44. RRIRHRPPRLPRPRPRPAYVPRP  -0.102
45. RRIRGRPPRLPRPRPRPWIDPRP  -0.103
46. RRIRLRPPRLPRPRPRPCDAPRP  -0.105
47. RRIRLRPPRLPRPRPRPNVKPRP  -0.107
48. RRIRLRPPRLPRPRPRPAMTPRP  -0.113
49. RRIRWRPPRLPRPRPRPLWKPRP  -0.128
50. RRIRLRPPRLPRPRPRPEQFPRP  -0.141
51. RRIRQRPPRLPRPRPRPEYEPRP  -0.157
52. RRIRVRPPRLPRPRPRPLGEPRP  -0.162
53. RRIRMRPPRLPRPRPRPFVHPRP  -0.178
54. RRIRERPPRLPRPRPRPNVFPRP  -0.189
55. RRIRFRPPRLPRPRPRPFPWPRP  -0.211
56. RRIRSRPPRLPRPRPRPKNHPRP  -0.215
57. RRIRVRPPRLPRPRPRPILAPRP  -0.224
58. RRIRPRPPRLPRPRPRPGVTPRP  -0.227
59. RRIRYRPPRLPRPRPRPESNPRP  -0.23
60. RRIRWRPPRLPRPRPRPDSIPRP  -0.243
61. RRIRPRPPRLPRPRPRPPDFPRP  -0.256
62. RRIRYRPPRLPRPRPRPYLSPRP  -0.274
63. RRIRTRPPRLPRPRPRPVDIPRP  -0.282
64. RRIRIRPPRLPRPRPRPNRYPRP  -0.295
65. RRIRLRPPRLPRPRPRPQHVPRP  -0.316
66. RRIRFRPPRLPRPRPRPNSYPRP  -0.372
67. RRIRTRPPRLPRPRPRPTDFPRP  -0.405
68. RRIRTRPPRLPRPRPRPLFPPRP  -0.415
69. RRIRDRPPRLPRPRPRPPCNPRP  -0.424
70. RRIRIRPPRLPRPRPRPITWPRP  -0.551
71. RRIRPRPPRLPRPRPRPFMEPRP  -0.554
72. RRIRYRPPRLPRPRPRPVCCPRP  -0.644
73. RRIRWRPPRLPRPRPRPYIKPRP  -0.736
74. RRIRPRPPRLPRPRPRPHYNPRP  -0.769
75. RRIRYRPPRLPRPRPRPGMYPRP  -1.44

Reference: the supplement of paper PMC9112550, “Optimization of the antimicrobial peptide Bac7 by deep mutational scanning” (BMC Biology, 2022)
